The data set can be described thus: yeast display, Sf9 membrane polyspecificity reagent, FACS + sequencing; frameworks hold sequencing errors. In short, it runs like this:
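Galactose-induced (36–48 hours) yeast carrying a synthetic nanobody display library were exposed to 10% biotinylated, detergent-solubilized Sf9 membrane reagent at 4 °C for 1 hour. FACS followed streptavidin microbead enrichment, using low and high (top ~1%) gates for expression (anti-HA) and reagent binding (streptavidin). Colony PCR, MiSeq 2 × 250 sequencing and CDR-length filtering followed. Labels for polyreactivity reflect the gate of origin.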
For the sequence “QVHLVESGGGLVHAGGSLRLSSAASGFIFRYYAMGWYRQAPGKERELVAAITSLGGRTYYADSVNGRFTISRDYAKNTVYLQMNSLKPEDTAVFYCAKSTRGTYDMGFWGQVTQVTVSS”, the “polyreactivity (PSR sort gate)” value was “high polyreactivity”.
The entry for “QVHLVESGGGLVKAGGSLRISCAASGRTSVLYAMGWYRQAPGKDREFVAAITWNSGSTYYADSVKGRFTISRDNAKHTVYLQMNCLKPEDTAVYYCAADVYYEYDYWGQGTQVTVSS” is “low polyreactivity”; for “QVHLVESGGGLVQAAGILRLSSAASGFTFVPYAMGWYRQAPGKERELVAAISWRRGSTYYADSVKGRFTISRDNAKITVYLQMNSLKPEDSGVYYGDDQYFSRSGYWGQGTQVTVSS” it is “high polyreactivity”.
As for “QVHLVESGGGLVQAGCCLRLRCAASGRTYDAYAKAWYRQAPGKERELVAAISSGDITNYADSVKGRFTISRDHAKNTVYLQMNSLKPEDTAVYYCAAKPRLRFFLWHEYSSRYDYWGQGTQVTVSS”, the “polyreactivity (PSR sort gate)” value was “high polyreactivity”.
The entry for “QVHLVESGGGLVQAGCSLRLSCAASGYIFVRNAMGWYRQAPGKERELVAAISGSGGSTYYADSVKGRFTISRDNAKNTVYLQMNSLKPEDTAVYYCASDPYHWRWGWRHDYWGQGTQVTVSS” is “low polyreactivity”; for “QVHLVESGGGLVQAGGILRLSCAASGRTFLWYAMGWSRQAPGKERELVAAISKRGGSTYYADSVKGRFTISRDKAKNTVYLQMNSLKPVDTAVYYCAAEKRYSSYDYWGQGTQVSVSS” it is “high polyreactivity”; for “QVHLVESGGGLVQAGGILRLSCAASGRTFPGYAMGWYRQAPGKERELVAAITYTGGDTHYADSVKGRFTISRDNAKNTVYLQMNSLKPEDTAVYYCAAVYYRGIQSYDYWGQGTQVTVSS” it is “low polyreactivity”.
In the case of “QVHLVESGGGLVQAGGILRLSCSAYGSIFDVNAKGWYRQSPGKERELVAAISDSGGSTYYADSVKGRFTISRDNAKNTVYLQMNSLKPEDTSVYYCNADWYWYNYYDFDYWGQGTQVTVSS”, the “polyreactivity (PSR sort gate)” value is recorded as “low polyreactivity”.
The entry for “QVHLVESGGGLVQAGGRLLLSCAASGLILRTYGMGWYRQAPRKERELVAVISSGGSTYYADSVNGRFTISRDNAKNTVYLQMNSLKPEDTAVYYCAVRSSWYEGDYWGQGTQVTVSS” is “low polyreactivity”; for “QVHLVESGGGLVQAGGSHRLSCAASGSTLRWNAMGWYRQAPGKERELVAAITYSGGSTYYADSVKGRFTISRDNAKNTVYFQMNSLKPEDTAVYYCAADSYRYRPGYGPVLYDYWGQGTQVTVSS” it is “high polyreactivity”.
The entry for “QVHLVESGGGLVQAGGSIRLSCAASGGTFSRNAMGWYRQAPGKERELVAAINSSGVSTSYADSVKGRFTISRDNAKNNVYLQMNSLKPEDTAVYYCAAETSSAEVDYWGQGTQVTVSS” is “low polyreactivity”; for “QVHLVESGGGLVQAGGSLGISCAASGRILYGYAMGWNRQAPGKERELVAAITATYYADSVKGRFTISRDNAKNSVYLQMNSLNPEDTGVFYCNAYLCPIQPLSPPDPTFEGGYWGQGTQVTVSS” it is “low polyreactivity”.
In the case of “QVHLVESGGGLVQAGGSLGLSCAASGFTFANNAMGWYRQAPGKERELVAAISSSGGSTYYADSVKVRFTISRDNAKKTVYLQMNSLKPEDTAVYYCAARRRGSYYGYGYWGQGTQVTVSS” it was “high polyreactivity”; in that of “QVHLVESGGGLVQAGGSLRISCAASGRIFVGYVMGWYRQAPGKERELVAAITWRGGSTYADSVKGRFTISRDNAKNTVYLQMNSLIPEDTAVYYCAAKVSRTYPRIPYYYWGQGTQVTVSS”, “high polyreactivity”.
For the sequence “QVHLVESGGGLVQAGGSLRISFAASGRTFPYYDMGWYRQAPGKERELVAAINSGGRTNYADSVKGRFTISRDNAKNTVYLQLNSLKPEDTAVYYCTKRGHPSRLGYYYWGLGTQVTVSS”, the “polyreactivity (PSR sort gate)” value is listed as “low polyreactivity”.
The entry for “QVHLVESGGGLVQAGGSLRLICAASGSIFRWNAMGWYRQAPGKEREFVATISSGRNTKYADSVKGRFTISRDNAKNTVYLQMTSLKPQDTAVNDCAAAVKRALDYWGQGTQVTVSS” is “high polyreactivity”.

For the origin of these results see the nanobody polyreactivity screen of Harvey et al. (2022).
